Source: patent publication US20240327543A1 (SHENGHE CHINA BIOPHARMACEUTICAL, published 2024)
Read-outs that look alike come from different tables or passages of the source.

Assays:
Human-NKP30-His [1] = biological target: T1, Human-NKP30-His (human, UniProt O14931 19-135, limits assumed); assay: ELISA, plate coated with Human-NKP30-His, detection with HRP goat anti-human IgG-Fc
T1 construct: Coated on the ELISA plate at 0.5 µg/mL; also called NKP30 protein; not shown: His tag
T1 sequence (looked up): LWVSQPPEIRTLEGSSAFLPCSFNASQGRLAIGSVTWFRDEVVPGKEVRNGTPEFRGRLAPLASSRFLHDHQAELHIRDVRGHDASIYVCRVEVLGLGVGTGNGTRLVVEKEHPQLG
Protocol: (§1) Human-NKP30-His was diluted to 0.5 μg/mL with PBS buffer at pH 7.4, added into the 96-well ELISA plate at 100 μL per well, coated overnight at 4° C., and blocked with 1% BSA blocking solution for 1 hour. The plate was washed 3 times with PBST, and the constructed antibodies were diluted to 10 μg/mL with 0.5% BSA sample diluent as the starting concentration, and then diluted by 3-fold gradient (11 gradients in total). A negative control (blank well and IgG1 isotype control) and a positive control were set, and the positive control was a NKP30 humanized antibody (sequence shown in SEQ ID No.32), and incubated at 37° C. for 1 h at 100 μL per well. […] The absorbance value of each well in the 96-well plate was determined by selecting the wavelength of 450 nm and the reference wavelength of 570 nm on a multifunctional enzyme marker, and the absorbance value (OD)=OD₄₅₀ₙₘ−OD₅₇₀ₙₘ. The logarithm of the concentration of the constructed antibodies were taken as the abscissa, and the measured absorbance value of each well was taken as the ordinate, and the Sigmoidaldose-response (Variable Slope) method (GraphPad Prism software, GraphPad Software, San Diego, California) was selected for nonlinear regression to obtain the binding curve of the target antibody to NKP30 protein.

Human-NKP30-His [2] = biological target: T1, Human-NKP30-His; assay: as above; remark: listed apart in the source
Protocol: as §1

B1: NKP30 humanized antibody (SEQ ID No.32) (antibody, human IgG4 S228P, V domains shown)
VH: EVQLVESGGGLVQPGGSLRLSCAASGITFSRSVMGWFRQAPGKLRELVAGITSDDNTDYADSVKGRFTISRDNSKNTLYLQMNSLRAEDTAVYYCNILPDSRLGWGQGTLVTVSS
notes: It was detected with anti-human IgG-Fc; also called positive control; NKP30 monoclonal antibody
Human-NKP30-His [1]
  EC50 (read off the curve): ~0.03 µg/mL
Human-NKP30-His [2]
  EC50 (read off the curve): ~0.03 µg/mL
